Six molecules from publication PMC4787810 (Nucleic Acids Research, 2015) can be followed below.

Residue numbers refer to the chain shown, from its start. Names may count otherwise. Read-outs that look alike come from different tables or passages of the source.

The data set “cross-linking” concerns the molecule itself. In words: cross-linking.
The data set “SEC-MALS” deals with the molecule itself. The data set is described as follows: SEC-MALS. A general note: Size exclusion chromatography separates by hydrodynamic size, large species first.
Data set [1] concerns the target T1, HpDnaB replicative helicase (Helicobacter pylori, UniProt O25916 1-488).
T1 sequence: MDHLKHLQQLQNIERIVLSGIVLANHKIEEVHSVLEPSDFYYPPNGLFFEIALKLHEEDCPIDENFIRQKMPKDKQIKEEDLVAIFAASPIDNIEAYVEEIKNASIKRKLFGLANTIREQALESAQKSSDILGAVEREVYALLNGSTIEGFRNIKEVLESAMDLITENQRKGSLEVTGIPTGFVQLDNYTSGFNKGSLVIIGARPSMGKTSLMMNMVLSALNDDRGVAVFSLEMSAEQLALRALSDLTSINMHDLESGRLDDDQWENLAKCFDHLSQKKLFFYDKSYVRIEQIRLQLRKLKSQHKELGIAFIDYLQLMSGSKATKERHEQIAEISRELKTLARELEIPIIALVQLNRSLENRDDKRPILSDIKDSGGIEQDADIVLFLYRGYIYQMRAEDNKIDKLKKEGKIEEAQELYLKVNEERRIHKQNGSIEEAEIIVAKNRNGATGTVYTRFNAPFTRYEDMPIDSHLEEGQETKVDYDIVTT
The data set is described as follows: fluorescence anisotropy. On the technique in general: Fluorescence polarisation rises when a labelled molecule tumbles more slowly, as on binding a larger partner.

For data set [2], the target named is T1, HpDnaB replicative helicase. In words: fluorescence anisotropy. The source holds these as a separate data set.
The target of data set [3] is T2, HpDnaB replicative helicase;HpDnaG helicase-binding domain (HpDnaGHBD) (Helicobacter pylori;Helicobacter pylori …, UniProt O25916;P56064 1-488;415-559, |).
T2 sequence 1: T1 sequence
T2 sequence 2: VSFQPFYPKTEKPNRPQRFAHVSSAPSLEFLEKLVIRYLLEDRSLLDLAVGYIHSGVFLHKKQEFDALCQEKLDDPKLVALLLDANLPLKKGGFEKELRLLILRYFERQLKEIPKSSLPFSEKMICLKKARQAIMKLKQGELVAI
In words: fluorescence anisotropy.

Data set [4] concerns the target T1, HpDnaB replicative helicase. The data set is described as follows: fluorescence anisotropy. This is another data set of the same source.
For data set [5] the target is unchanged. The data set is described as follows: fluorescence anisotropy. The source holds these as a separate data set.
Data set [6] has as its target T2, HpDnaB replicative helicase;HpDnaG …. The data set is described as follows: fluorescence anisotropy. The source holds these as a separate data set.

B1: HpDnaB^Δ9 (N-terminal deletion mutant starting at residue 10) (domain or fragment, Helicobacter pylori, UniProt O25916 10-488, looked up)
chain: LQNIERIVLSGIVLANHKIEEVHSVLEPSDFYYPPNGLFFEIALKLHEEDCPIDENFIRQKMPKDKQIKEEDLVAIFAASPIDNIEAYVEEIKNASIKRKLFGLANTIREQALESAQKSSDILGAVEREVYALLNGSTIEGFRNIKEVLESAMDLITENQRKGSLEVTGIPTGFVQLDNYTSGFNKGSLVIIGARPSMGKTSLMMNMVLSALNDDRGVAVFSLEMSAEQLALRALSDLTSINMHDLESGRLDDDQWENLAKCFDHLSQKKLFFYDKSYVRIEQIRLQLRKLKSQHKELGIAFIDYLQLMSGSKATKERHEQIAEISRELKTLARELEIPIIALVQLNRSLENRDDKRPILSDIKDSGGIEQDADIVLFLYRGYIYQMRAEDNKIDKLKKEGKIEEAQELYLKVNEERRIHKQNGSIEEAEIIVAKNRNGATGTVYTRFNAPFTRYEDMPIDSHLEEGQETKVDYDIVTT
B1: the stoichiometry N (usually the number of molecules, sites or subunits per partner or assembly) in the data set “cross-linking” is 6; in “SEC-MALS”, ~6. Consider TTTTTTTTTTTTTTTTTTTTTTTTTTTTTTTTTTTTTTTTTTTTTTTTTT (ssDNA) [50dT], for which the Kd (usually the free concentration of one partner at which half of the binding sites on the other are occupied at equilibrium, for simple one-to-one binding) in data set [1] was found to be 1.8 ± 0.2 nM; in data set [2] it was 70 ± 6 nM.

B2: HpDnaB^L4A (enzyme, Helicobacter pylori, UniProt O25916 1-488, looked up)
chain: T1 sequence with L4A
As to B2, in the data set “SEC-MALS”, the binding result is recorded as “binds”.

B3: HpDnaB^Q8A (enzyme, Helicobacter pylori, UniProt O25916 1-488, looked up)
chain: T1 sequence with Q8A
With B3, the “stoichiometry N” value in the data set “cross-linking” came out at 6.

B4: HpDnaB^E80A (enzyme, Helicobacter pylori, UniProt O25916 1-488, looked up)
chain: T1 sequence with E80A
Regarding B4, in the data set “SEC-MALS”, the binding result is listed as “binds”. For the molecule TTTTTTTTTTTTTTTTTTTT (ssDNA) [20dT], the Kd was determined as 1 ± 0.1 nM in data set [3], 3.1 ± 0.1 nM in data set [4], 15 ± 1 nM in data set [5] and 8.3 ± 0.6 nM in data set [6].
